Test results from paper PMC9482650, “Quantitative fragmentomics allow affinity mapping of interactomes” (Nature Communications, 2022).

biological target: T1, APBA1_1, Q02410; experiment: holdup assay; set-up: key: below the threshold = too weak to quantify, mostly under pKd 3.1 to 4; settings: plain residues with an end cap or a label only (N-terminal biotin on a linker: ado-ado)
T1 sequence (Q02410 651-752, limits assumed, looked up): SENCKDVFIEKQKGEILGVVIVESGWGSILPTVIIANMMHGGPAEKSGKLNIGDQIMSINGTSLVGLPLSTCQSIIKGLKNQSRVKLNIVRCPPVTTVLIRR

Binder | pKd
KSRVAFFEEL [NF2, P35240;P35240-1] | below the threshold
IDESKKEWLI [CNTNAP2, Q9UHC6] | below the threshold

biological target: T2, APBA1_2, Q02410; experiment: holdup assay; set-up: key: below the threshold = too weak to quantify, mostly under pKd 3.1 to 4; settings: plain residues with an end cap or a label only (N-terminal biotin on a linker: ado-ado)
T2 sequence (Q02410 742-832, limits assumed, looked up): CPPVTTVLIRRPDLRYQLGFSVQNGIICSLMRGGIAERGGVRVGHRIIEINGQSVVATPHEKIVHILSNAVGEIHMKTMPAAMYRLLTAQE

Binder | pKd
IDESKKEWLI [CNTNAP2, Q9UHC6] | below the threshold

biological target: T3, ARHGAP21, Q5T5U3; experiment: holdup assay; set-up: key: below the threshold = too weak to quantify, mostly under pKd 3.1 to 4; settings: plain residues with an end cap or a label only (N-terminal biotin on a linker: ado-ado)
T3 sequence (Q5T5U3 45-169, limits assumed, looked up): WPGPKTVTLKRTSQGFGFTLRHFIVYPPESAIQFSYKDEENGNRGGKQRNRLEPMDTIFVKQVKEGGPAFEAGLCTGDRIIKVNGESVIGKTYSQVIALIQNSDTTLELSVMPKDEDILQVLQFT

Binder | pKd
KSRVAFFEEL [NF2, P35240;P35240-1] | below the threshold
IDESKKEWLI [CNTNAP2, Q9UHC6] | below the threshold

biological target: T4, DLG3_3, Q92796; experiment: holdup assay; set-up: key: below the threshold = too weak to quantify, mostly under pKd 3.1 to 4; settings: plain residues with an end cap or a label only (N-terminal biotin on a linker: ado-ado)
T4 sequence (Q92796 374-475, limits assumed, looked up): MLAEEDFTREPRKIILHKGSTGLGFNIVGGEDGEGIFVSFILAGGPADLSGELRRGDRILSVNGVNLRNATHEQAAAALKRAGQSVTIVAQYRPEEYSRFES

Binder | pKd
KSRVAFFEEL [NF2, P35240;P35240-1] | below the threshold
IDESKKEWLI [CNTNAP2, Q9UHC6] | below the threshold

biological target: DLG4_1, P78352; experiment: holdup assay; set-up: key: below the threshold = too weak to quantify, mostly under pKd 3.1 to 4; settings: plain residues with an end cap or a label only (N-terminal biotin on a linker: ado-ado)
Sequence (P78352 62-152): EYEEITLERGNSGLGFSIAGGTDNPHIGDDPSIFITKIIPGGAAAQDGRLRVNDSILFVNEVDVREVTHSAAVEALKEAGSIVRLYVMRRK

Binder | pKd
IDESKKEWLI [CNTNAP2, Q9UHC6] | below the threshold

biological target: GRID2IP_2, A4D2P6; experiment: holdup assay; set-up: key: below the threshold = too weak to quantify, mostly under pKd 3.1 to 4; settings: plain residues with an end cap or a label only (N-terminal biotin on a linker: ado-ado)
Sequence (A4D2P6 272-370): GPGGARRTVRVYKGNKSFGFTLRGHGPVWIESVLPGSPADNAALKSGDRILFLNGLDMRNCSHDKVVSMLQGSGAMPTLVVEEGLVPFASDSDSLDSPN

Binder | pKd
IDESKKEWLI [CNTNAP2, Q9UHC6] | below the threshold

biological target: GRIP2_3, Q9C0E4; experiment: holdup assay; set-up: key: below the threshold = too weak to quantify, mostly under pKd 3.1 to 4; settings: plain residues with an end cap or a label only (N-terminal biotin on a linker: ado-ado)
Sequence (Q9C0E4 238-339): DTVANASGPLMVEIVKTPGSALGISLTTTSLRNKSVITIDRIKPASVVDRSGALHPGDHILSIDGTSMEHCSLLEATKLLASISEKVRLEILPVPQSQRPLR

Binder | pKd
KSRVAFFEEL [NF2, P35240;P35240-1] | below the threshold
IDESKKEWLI [CNTNAP2, Q9UHC6] | below the threshold

biological target: GRIP2_5, Q9C0E4; experiment: holdup assay; set-up: key: below the threshold = too weak to quantify, mostly under pKd 3.1 to 4; settings: plain residues with an end cap or a label only (N-terminal biotin on a linker: ado-ado)
Sequence (Q9C0E4 544-642): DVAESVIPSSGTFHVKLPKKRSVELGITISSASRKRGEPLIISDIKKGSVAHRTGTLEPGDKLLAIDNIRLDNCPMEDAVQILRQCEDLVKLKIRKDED

Binder | pKd
IDESKKEWLI [CNTNAP2, Q9UHC6] | below the threshold

biological target: IL16_1, Q14005; experiment: holdup assay; set-up: key: below the threshold = too weak to quantify, mostly under pKd 3.1 to 4; settings: plain residues with an end cap or a label only (N-terminal biotin on a linker: ado-ado)
Sequence (Q14005 210-306): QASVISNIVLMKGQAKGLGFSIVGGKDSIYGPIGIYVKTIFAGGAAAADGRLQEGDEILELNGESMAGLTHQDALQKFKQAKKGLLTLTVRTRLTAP

Binder | pKd
IDESKKEWLI [CNTNAP2, Q9UHC6] | below the threshold

biological target: Inadl_4, Q8NI35; experiment: holdup assay; set-up: key: below the threshold = too weak to quantify, mostly under pKd 3.1 to 4; settings: plain residues with an end cap or a label only (N-terminal biotin on a linker: ado-ado)
Sequence (Q8NI35 547-651): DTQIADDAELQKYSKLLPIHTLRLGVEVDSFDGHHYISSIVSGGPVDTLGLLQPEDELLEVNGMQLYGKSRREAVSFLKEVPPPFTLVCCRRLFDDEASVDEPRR

Binder | pKd
KSRVAFFEEL [NF2, P35240;P35240-1] | below the threshold
IDESKKEWLI [CNTNAP2, Q9UHC6] | below the threshold

biological target: LDB3, O75112; experiment: holdup assay; set-up: key: below the threshold = too weak to quantify, mostly under pKd 3.1 to 4; settings: plain residues with an end cap or a label only (N-terminal biotin on a linker: ado-ado)
Sequence (O75112 1-94): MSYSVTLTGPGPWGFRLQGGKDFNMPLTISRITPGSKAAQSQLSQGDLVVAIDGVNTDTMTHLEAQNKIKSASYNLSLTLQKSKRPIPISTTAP

Binder | pKd
IDESKKEWLI [CNTNAP2, Q9UHC6] | below the threshold

biological target: MAGI1_1, Q96QZ7; experiment: holdup assay; set-up: key: below the threshold = too weak to quantify, mostly under pKd 3.1 to 4; settings: plain residues with an end cap or a label only (N-terminal biotin on a linker: ado-ado)
Sequence (Q96QZ7 1-106): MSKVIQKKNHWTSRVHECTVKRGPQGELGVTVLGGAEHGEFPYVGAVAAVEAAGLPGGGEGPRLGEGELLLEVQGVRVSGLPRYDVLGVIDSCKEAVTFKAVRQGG

Binder | pKd
KSRVAFFEEL [NF2, P35240;P35240-1] | below the threshold
IDESKKEWLI [CNTNAP2, Q9UHC6] | below the threshold

biological target: MAGI2_3, Q86UL8; experiment: holdup assay; set-up: key: below the threshold = too weak to quantify, mostly under pKd 3.1 to 4; settings: plain residues with an end cap or a label only (N-terminal biotin on a linker: ado-ado)
Sequence (Q86UL8 600-682): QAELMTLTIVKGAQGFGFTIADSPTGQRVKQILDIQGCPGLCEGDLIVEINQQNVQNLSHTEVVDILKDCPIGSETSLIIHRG

Binder | pKd
IDESKKEWLI [CNTNAP2, Q9UHC6] | 3.5

biological target: MAST2, Q6P0Q8; experiment: holdup assay; set-up: key: below the threshold = too weak to quantify, mostly under pKd 3.1 to 4; settings: plain residues with an end cap or a label only (N-terminal biotin on a linker: ado-ado)
Sequence (Q6P0Q8 1099-1202): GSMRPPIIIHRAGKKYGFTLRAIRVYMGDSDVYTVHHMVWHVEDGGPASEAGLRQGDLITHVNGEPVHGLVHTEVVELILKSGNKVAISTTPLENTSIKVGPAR

Binder | pKd
KSRVAFFEEL [NF2, P35240;P35240-1] | 4.97
IDESKKEWLI [CNTNAP2, Q9UHC6] | below the threshold

biological target: T5, MPDZ_10, O75970; experiment: holdup assay; set-up: key: below the threshold = too weak to quantify, mostly under pKd 3.1 to 4; settings: plain residues with an end cap or a label only (N-terminal biotin on a linker: ado-ado)
T5 sequence (O75970 1624-1722, limits assumed, looked up): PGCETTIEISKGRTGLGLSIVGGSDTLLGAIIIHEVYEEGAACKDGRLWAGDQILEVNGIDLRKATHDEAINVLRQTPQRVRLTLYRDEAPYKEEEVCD

Binder | pKd
KSRVAFFEEL [NF2, P35240;P35240-1] | below the threshold
IDESKKEWLI [CNTNAP2, Q9UHC6] | below the threshold

biological target: T6, MPDZ_5, O75970; experiment: holdup assay; set-up: key: below the threshold = too weak to quantify, mostly under pKd 3.1 to 4; settings: plain residues with an end cap or a label only (N-terminal biotin on a linker: ado-ado)
T6 sequence (O75970 695-796, limits assumed, looked up): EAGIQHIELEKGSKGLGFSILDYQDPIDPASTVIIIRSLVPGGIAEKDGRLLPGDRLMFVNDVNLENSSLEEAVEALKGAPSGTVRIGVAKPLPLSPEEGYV

Binder | pKd
KSRVAFFEEL [NF2, P35240;P35240-1] | below the threshold
IDESKKEWLI [CNTNAP2, Q9UHC6] | below the threshold

biological target: T7, MPP7, Q5T2T1; experiment: holdup assay; set-up: key: below the threshold = too weak to quantify, mostly under pKd 3.1 to 4; settings: plain residues with an end cap or a label only (N-terminal biotin on a linker: ado-ado)
T7 sequence (Q5T2T1 134-230, limits assumed, looked up): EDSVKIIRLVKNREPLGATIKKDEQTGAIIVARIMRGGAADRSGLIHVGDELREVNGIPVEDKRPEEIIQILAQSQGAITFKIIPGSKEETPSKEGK

Binder | pKd
KSRVAFFEEL [NF2, P35240;P35240-1] | below the threshold
IDESKKEWLI [CNTNAP2, Q9UHC6] | 5.46

biological target: NHERF2_2, Q15599; experiment: holdup assay; set-up: key: below the threshold = too weak to quantify, mostly under pKd 3.1 to 4; settings: plain residues with an end cap or a label only (N-terminal biotin on a linker: ado-ado)
Sequence (Q15599 142-238): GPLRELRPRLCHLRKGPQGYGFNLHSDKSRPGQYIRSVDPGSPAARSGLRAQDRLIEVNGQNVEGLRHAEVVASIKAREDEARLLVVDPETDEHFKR

Binder | pKd
IDESKKEWLI [CNTNAP2, Q9UHC6] | below the threshold

biological target: T8, NHERF3_1, Q5T2W1; experiment: holdup assay; set-up: key: below the threshold = too weak to quantify, mostly under pKd 3.1 to 4; settings: plain residues with an end cap or a label only (N-terminal biotin on a linker: ado-ado)
T8 sequence (Q5T2W1 4-100, limits assumed, looked up): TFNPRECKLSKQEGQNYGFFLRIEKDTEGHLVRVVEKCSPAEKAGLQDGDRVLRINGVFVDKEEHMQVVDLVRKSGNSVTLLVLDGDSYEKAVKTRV

Binder | pKd
KSRVAFFEEL [NF2, P35240;P35240-1] | 4.18
IDESKKEWLI [CNTNAP2, Q9UHC6] | below the threshold

biological target: NHERF4_2, Q86UT5; experiment: holdup assay; set-up: key: below the threshold = too weak to quantify, mostly under pKd 3.1 to 4; settings: plain residues with an end cap or a label only (N-terminal biotin on a linker: ado-ado)
Sequence (Q86UT5 220-308): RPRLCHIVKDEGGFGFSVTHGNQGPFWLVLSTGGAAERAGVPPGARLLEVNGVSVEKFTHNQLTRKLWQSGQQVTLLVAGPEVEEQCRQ

Binder | pKd
IDESKKEWLI [CNTNAP2, Q9UHC6] | below the threshold

biological target: NHERF4_4, Q86UT5; experiment: holdup assay; set-up: key: below the threshold = too weak to quantify, mostly under pKd 3.1 to 4; settings: plain residues with an end cap or a label only (N-terminal biotin on a linker: ado-ado)
Sequence (Q86UT5 464-550): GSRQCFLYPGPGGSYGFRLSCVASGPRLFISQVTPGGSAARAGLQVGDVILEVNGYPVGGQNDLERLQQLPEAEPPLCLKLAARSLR

Binder | pKd
KSRVAFFEEL [NF2, P35240;P35240-1] | below the threshold
IDESKKEWLI [CNTNAP2, Q9UHC6] | below the threshold

biological target: NOS1, P29475; experiment: holdup assay; set-up: key: below the threshold = too weak to quantify, mostly under pKd 3.1 to 4; settings: plain residues with an end cap or a label only (N-terminal biotin on a linker: ado-ado)
Sequence (P29475 9-101): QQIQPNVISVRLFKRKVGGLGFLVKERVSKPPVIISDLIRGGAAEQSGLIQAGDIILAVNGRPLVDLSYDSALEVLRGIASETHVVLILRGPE

Binder | pKd
IDESKKEWLI [CNTNAP2, Q9UHC6] | 4.21

biological target: PARD3_3, Q8TEW0; experiment: holdup assay; set-up: key: below the threshold = too weak to quantify, mostly under pKd 3.1 to 4; settings: plain residues with an end cap or a label only (N-terminal biotin on a linker: ado-ado)
Sequence (Q8TEW0 582-685): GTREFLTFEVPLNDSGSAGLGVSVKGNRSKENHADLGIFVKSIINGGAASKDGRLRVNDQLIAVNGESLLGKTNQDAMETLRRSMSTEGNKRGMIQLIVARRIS

Binder | pKd
IDESKKEWLI [CNTNAP2, Q9UHC6] | 5.28

biological target: T9, PDZD2_2, O15018; experiment: holdup assay; set-up: key: below the threshold = too weak to quantify, mostly under pKd 3.1 to 4; settings: plain residues with an end cap or a label only (N-terminal biotin on a linker: ado-ado)
T9 sequence (O15018 329-429, limits assumed, looked up): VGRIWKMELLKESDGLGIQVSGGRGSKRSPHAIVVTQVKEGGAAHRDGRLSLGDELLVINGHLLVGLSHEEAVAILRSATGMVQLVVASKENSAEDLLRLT

Binder | pKd
IDESKKEWLI [CNTNAP2, Q9UHC6] | 4.54

biological target: PICK1, Q9NRD5; experiment: holdup assay; set-up: key: below the threshold = too weak to quantify, mostly under pKd 3.1 to 4; settings: plain residues with an end cap or a label only (N-terminal biotin on a linker: ado-ado)
Sequence (Q9NRD5 17-115): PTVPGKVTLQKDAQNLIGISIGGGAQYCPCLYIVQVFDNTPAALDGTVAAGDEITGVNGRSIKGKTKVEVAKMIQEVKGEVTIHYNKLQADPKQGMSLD

Binder | pKd
KSRVAFFEEL [NF2, P35240;P35240-1] | below the threshold
IDESKKEWLI [CNTNAP2, Q9UHC6] | 4.19

biological target: SCRIB_2, Q14160; experiment: holdup assay; set-up: key: below the threshold = too weak to quantify, mostly under pKd 3.1 to 4; settings: plain residues with an end cap or a label only (N-terminal biotin on a linker: ado-ado)
Sequence (Q14160 857-960): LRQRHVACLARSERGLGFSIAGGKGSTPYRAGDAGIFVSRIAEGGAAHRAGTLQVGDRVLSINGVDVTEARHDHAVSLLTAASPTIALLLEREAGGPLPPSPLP

Binder | pKd
KSRVAFFEEL [NF2, P35240;P35240-1] | below the threshold
IDESKKEWLI [CNTNAP2, Q9UHC6] | below the threshold

biological target: T10, TX1BP3, O14907; experiment: holdup assay; set-up: key: below the threshold = too weak to quantify, mostly under pKd 3.1 to 4; settings: plain residues with an end cap or a label only (N-terminal biotin on a linker: ado-ado)
T10 sequence (O14907 10-122, limits assumed, looked up): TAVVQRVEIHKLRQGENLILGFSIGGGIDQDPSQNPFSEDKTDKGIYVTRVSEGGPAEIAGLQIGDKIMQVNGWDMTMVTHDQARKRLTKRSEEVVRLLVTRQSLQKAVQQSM

Binder | pKd
KSRVAFFEEL [NF2, P35240;P35240-1] | 4.34
IDESKKEWLI [CNTNAP2, Q9UHC6] | below the threshold
